Test results from article doi:10.1101/2023.07.20.549859 (bioRxiv, 2023).
Read-outs that look alike come from different tables or passages of the source.

T1: DNA polymerase alpha catalytic subunit POLA1 (334-1462) (human, UniProt P09884 334-1462)
T1 sequence (looked up): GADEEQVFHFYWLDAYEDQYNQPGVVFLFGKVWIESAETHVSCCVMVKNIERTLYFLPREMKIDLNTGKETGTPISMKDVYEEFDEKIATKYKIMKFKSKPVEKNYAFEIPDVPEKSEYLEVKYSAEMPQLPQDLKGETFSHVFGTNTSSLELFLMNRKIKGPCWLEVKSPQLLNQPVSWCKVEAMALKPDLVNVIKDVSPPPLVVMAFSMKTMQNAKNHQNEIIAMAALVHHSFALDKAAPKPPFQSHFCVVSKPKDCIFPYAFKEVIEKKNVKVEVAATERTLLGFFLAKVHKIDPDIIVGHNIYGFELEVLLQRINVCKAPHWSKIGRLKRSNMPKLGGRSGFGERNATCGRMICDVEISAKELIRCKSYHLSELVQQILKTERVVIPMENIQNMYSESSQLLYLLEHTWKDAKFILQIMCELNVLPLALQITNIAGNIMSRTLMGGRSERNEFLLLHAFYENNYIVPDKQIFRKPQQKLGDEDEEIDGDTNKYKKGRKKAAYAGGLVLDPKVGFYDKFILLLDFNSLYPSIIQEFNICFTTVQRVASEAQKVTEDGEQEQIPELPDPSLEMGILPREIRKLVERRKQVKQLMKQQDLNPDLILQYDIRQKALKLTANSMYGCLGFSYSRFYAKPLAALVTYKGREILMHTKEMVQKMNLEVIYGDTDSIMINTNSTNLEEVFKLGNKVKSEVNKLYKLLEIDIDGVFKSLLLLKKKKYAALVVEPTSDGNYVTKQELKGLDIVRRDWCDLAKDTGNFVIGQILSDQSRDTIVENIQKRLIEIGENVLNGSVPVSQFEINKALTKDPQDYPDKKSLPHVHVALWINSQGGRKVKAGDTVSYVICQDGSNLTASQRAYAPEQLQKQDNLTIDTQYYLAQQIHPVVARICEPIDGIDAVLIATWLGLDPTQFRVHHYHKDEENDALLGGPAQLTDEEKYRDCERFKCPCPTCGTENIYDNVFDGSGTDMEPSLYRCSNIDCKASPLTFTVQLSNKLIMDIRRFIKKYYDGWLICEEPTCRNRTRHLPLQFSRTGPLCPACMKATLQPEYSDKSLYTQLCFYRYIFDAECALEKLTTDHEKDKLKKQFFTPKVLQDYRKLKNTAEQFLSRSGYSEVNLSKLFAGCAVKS

B1: primase regulatory subunit PRIM2 (1-509) (natural protein, human, UniProt P49643 1-509, looked up)
chain: MEFSGRKWRKLRLAGDQRNASYPHCLQFYLQPPSENISLIEFENLAIDRVKLLKSVENLGVSYVKGTEQYQSKLESELRKLKFSYRENLEDEYEPRRRDHISHFILRLAYCQSEELRRWFIQQEMDLLRFRFSILPKDKIQDFLKDSQLQFEAISDEEKTLREQEIVASSPSLSGLKLGFESIYKIPFADALDLFRGRKVYLEDGFAYVPLKDIVAIILNEFRAKLSKALALTARSLPAVQSDERLQPLLNHLSHSYTGQDYSTQGNVGKISLDQIDLLSTKSFPPCMRQLHKALRENHHLRHGGRMQYGLFLKGIGLTLEQALQFWKQEFIKGKMDPDKFDKGYSYNIRHSFGKEGKRTDYTPFSCLKIILSNPPSQGDYHGCPFRHSDPELLKQKLQSYKISPGGISQILDLVKGTHYQVACQKYFEMIHNVDDCGFSLNHPNQFFCESQRILNGGKDIKKEPIQPETPQPKPSVQKTKDASSALASLNSSLEMDMEGLEDYFSEDS

Assays:
Assay in all cases: cryo-EM structure
[1] = target: T1, DNA polymerase alpha catalytic subunit …
[2] = target: B1
[3] = target: T1, DNA polymerase alpha catalytic subunit …; remark: listed apart in the source

Row | Binder | binding result [1] | binding result [2] | binding result [3]
1 | primase catalytic subunit PRIM1 (1-420) (enzyme, human, UniProt P49642 1-420, looked up) METFDPTELPELLKLYYRRLFPYSQYYRWLNYGGVIKNYFQHREFSFTLKDDIYIRYQSFNNQSDLEKEMQKMNPYKIDIGAVYSHRPNQHNTVKLGAFQAQEKELVFDIDMTDYDDVRRCCSSADICPKCWTLMTMAIRIIDRALKEDFGFKHRLWVYSGRRGVHCWVCDESVRKLSSAVRSGIVEYLSLVKGGQDVKKKVHLSEKIHPFIRKSINIIKKYFEEYALVNQDILENKESWDKILALVPETIHDELQQSFQKSHNSLQRWEHLKKVASRYQNNIKNDKYGPWLEWEIMLQYCFPRLDINVSKGINHLLKSPFSVHPKTGRISVPIDLQKVDQFDPFTVPTISFICRELDAISTNEEEKEENEAESDVKHRTRDYKKTSLAPYVKVFEHFLENLDKSRKGELLKKSDLQKDF | binds | binds | 
2 | B1 |  |  | binds
3 | DNA polymerase alpha accessory B subunit POLA2 (149-598) (domain or fragment, human, UniProt Q14181 149-598, looked up) SSFSPSATPSQKYNSRSNRGEVVTSFGLAQGVSWSGRGGAGNISLKVLGCPEALTGSYKSMFQKLPDIREVLTCKIEELGSELKEHYKIEAFTPLLAPAQEPVTLLGQIGCDSNGKLNNKSVILEGDREHSSGAQIPVDLSELKEYSLFPGQVVIMEGINTTGRKLVATKLYEGVPLPFYQPTEEDADFEQSMVLVACGPYTTSDSITYDPLLDLIAVINHDRPDVCILFGPFLDAKHEQVENCLLTSPFEDIFKQCLRTIIEGTRSSGSHLVFVPSLRDVHHEPVYPQPPFSYSDLSREDKKQVQFVSEPCSLSINGVIFGLTSTDLLFHLGAEEISSSSGTSDRFSRILKHILTQRSYYPLYPPQEDMAIDYESFYVYAQLPVTPDVLIIPSELRYFVKDVLGCVCVNPGRLTKGQVGGTFARLYLRRPAADGAERQSPCIAVQVVRI | binds |  | 
